Data: patent US20240199757A1 (UNIVERSITY OF CHICAGO, published 2024)

T1: human NT5E expressed on MDA-MB-231 cells (human, UniProt P21589 27-549)
T1 sequence (looked up): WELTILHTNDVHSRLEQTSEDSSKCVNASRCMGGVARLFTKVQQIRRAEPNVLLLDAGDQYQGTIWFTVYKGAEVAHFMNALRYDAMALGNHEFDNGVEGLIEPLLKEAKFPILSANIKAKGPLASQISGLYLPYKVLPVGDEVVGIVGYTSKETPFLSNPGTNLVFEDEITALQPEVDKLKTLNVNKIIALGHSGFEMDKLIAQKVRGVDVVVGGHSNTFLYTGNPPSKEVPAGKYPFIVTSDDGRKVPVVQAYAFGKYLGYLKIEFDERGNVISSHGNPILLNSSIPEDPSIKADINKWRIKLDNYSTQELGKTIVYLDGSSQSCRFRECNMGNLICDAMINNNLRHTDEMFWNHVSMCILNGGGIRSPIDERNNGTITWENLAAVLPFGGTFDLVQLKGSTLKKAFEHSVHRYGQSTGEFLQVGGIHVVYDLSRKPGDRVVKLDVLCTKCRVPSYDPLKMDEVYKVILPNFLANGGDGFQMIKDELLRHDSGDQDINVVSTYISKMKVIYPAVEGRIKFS

T2: Full-length murine NT5E (recombinant) (murine, UniProt Q61503 29-552)
T2 construct: also called mNT5E
T2 sequence: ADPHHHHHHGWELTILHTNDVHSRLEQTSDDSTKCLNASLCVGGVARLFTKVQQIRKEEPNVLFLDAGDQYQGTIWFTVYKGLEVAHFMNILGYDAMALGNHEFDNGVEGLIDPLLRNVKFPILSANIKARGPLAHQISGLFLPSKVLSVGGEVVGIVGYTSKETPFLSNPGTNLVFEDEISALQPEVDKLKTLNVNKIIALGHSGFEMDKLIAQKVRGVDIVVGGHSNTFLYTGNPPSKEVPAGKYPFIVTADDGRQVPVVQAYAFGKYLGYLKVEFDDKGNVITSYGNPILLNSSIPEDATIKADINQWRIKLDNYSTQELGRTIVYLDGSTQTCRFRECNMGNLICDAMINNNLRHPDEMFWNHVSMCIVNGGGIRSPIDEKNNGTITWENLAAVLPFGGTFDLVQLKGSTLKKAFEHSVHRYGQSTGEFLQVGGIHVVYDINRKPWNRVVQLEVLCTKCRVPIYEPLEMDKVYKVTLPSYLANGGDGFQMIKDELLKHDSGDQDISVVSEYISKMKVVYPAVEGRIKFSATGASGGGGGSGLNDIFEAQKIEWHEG

B1: 1789 Fab (Fab, V domains shown)
VH: EVQLVESGGGLVQPGGSLRLSCAASGFNVSYSSIHWVRQAPGKGLEWVASISSSSGYTYYADSVKGRFTISADTSKNTAYLQMNSLRAEDTAVYYCARNYWGWYPFYYFAFDYWGQGTLVTV
VL: DIQMTQSPSSLSASVGDRVTITCRASQSVSSAVAWYQQKPGKAPKLLIYSASSLYSGVPSRFSGSRSGTDFTLTISSLQPEDFATYYCQQGWDYPITFGQGTKVEIKR
B2: 1789 IgG (antibody, V domains shown)
VH: EVQLVESGGGLVQPGGSLRLSCAASGFNVSYSSIHWVRQAPGKGLEWVASISSSSGYTYYADSVKGRFTISADTSKNTAYLQMNSLRAEDTAVYYCARNYWGWYPFYYFAFDYWGQGTLVTVSS
VL: B1 VL

Legend:
[1] = target: T1, human NT5E expressed on MDA-MB-231 cells; assay: cell-based or functional assay
[2] = target: hNT5EDF (substrate binding knock-out variant of hNT5E) (human); assay: DSF thermal shift, 1.5-fold molar excess of Fab, 1 mM ATP (hNT5EDF alone 46° C.)
Experimental: With 1 mM ATP alone (red dashed line), the TM shifts from one transition at 49° C. to two transitions at TM 59° C. and 64° C. […] Thermal shift assays of substrate binding knock-out variants hNT5EDF (FIG. 2B) and hNT5EFF (FIG. 2C) show no change in thermal stability with the addition of ATP.
Thermal stability of samples was analyzed by differential scanning fluorimetry (DSF) using a real-time PCR instrument (Bio-Rad CFX384). Protein samples were mixed with 4× Sypro Orange at a final 4 μM concentration. For target/Fab complexes, 1.5-fold molar excess of Fab was used. All reactions were performed in triplicates in a 384-well plate. Thermal melting curves were monitored from 25° C. to 95° C. in steps of 0.5° C./30 s. Wavelengths of 490 and 575 nm were used for excitation and emission, respectively. The melting temperatures were inferred from the first derivative of the melting curves from the mean of triplicate runs using CFX software provided by the manufacturer.

[3] = target: T2, Full-length murine NT5E (recombinant); assay: ELISA, biotinylated NT5E on neutravidin plate, 1 mM ATP; ELISA, recombinant mNT5E, with ATP (EC50ATP)
Experimental: (B) Protein ELISA: Protein-based multipoint ELISA was performed to estimate the affinity of the generated Fabs and IgGs to NT5E. The binding of the Fabs and IgGs to the closed form of NT5E were determined in ELISA buffer (HBST) supplemented with 10 μM zinc chloride and 1 mM ATP while the binding of the same to open form of NT5E were determined in ELISA buffer (HBST) without any cofactors. A fixed concentration of the immobilized target (50 nM) on ELISA plate was incubated with 3-fold serial dilutions of the purified Fabs and IgGs starting from 3 μM and 1 μM respectively for 15 min. The plates were washed and were subsequently incubated with a secondary HRP-conjugated anti-protein L monoclonal antibody (#32420, ThermoFisher, 1:6000 dilution). As with phage ELISA, the plates were again washed, developed with TMB substrate and quenched with 1.0 M HCl, and absorbance (Abs450) was determined. To determine the affinity (EC50), the data were fitted with a non-linear, 4-parameter logistic curve in OriginLab.

[4] = target: T1, human NT5E expressed on MDA-MB-231 cells; assay: flow cytometry on MDA-MB-231 cells, PBS without ATP; -ATP (PBS alone), MDA-MB-231 cells
Experimental: Flow cytometry analysis of antibodies binding to human NT5E expressed on MDA-MB-231 cells in ATP-free condition (black) or in 1 mM ATP (red). Top panel: (left) 1780 Fab and (right) 1780 IgG titrations. […] Binding was measured at the indicated range of antibody concentrations and is expressed as mean±st. dev of median fluorescence intensity (MFI) of 1-2 replicates. Data were analyzed using OriginLab, and EC₅₀ values are shown next to the fitted curves.
Human MDA-MB-231 cells and murine 4T1 cells were grown to 90% confluency, detached with 5 mM EDTA for 15 min at 37° C. and then resuspended in 37° C. lx PBS (#10010031, Gibco) supplemented with 1% FBS and 1OpM ZnCl2. Separate working buffers (WB) of PBS and 1% FBS with or without fixed nucleotide concentrations were used throughout all washing steps to maintain constant condition. In 96-well plates (#3799, Costar), 0.2×10⁶ cells were added per well. The plates were spun at 500×g for 5 min and the supernatant was removed. Anti-NT5E antibodies were diluted to the desired concentration in 100 μL WB, added to the cells and the plates were incubated for 20 min at 37° C. Plates were spun and cells were washed twice with WB then spun a second time. […] Samples were analyzed by flow cytometry using CytoFLEX (Beckman Coulter) and mean fluorescence intensity (MFI) data was extracted using FlowJo software. […]

Binder | IC50 of NT5E phosphate production on MDA-MB-231 cells, +500 µM ATP [1] | TM of NT5E in the presence of the Fab [2] | EC50 [3] | EC50 [4]
B1 | 122 nM | 46 ° C. | 132 nM | –
B2 | 2.2 nM | – | – | 124 nM
